Measured values as given in patent US20260242419A1, “A CYCLIC PEPTIDE FOR TRAPPING INTERLEUKIN-1 BETA” (Merck Sharp & Dohme LLC, priority 2023, published 2026).
Starred links: 1 amine or outer side, 2 acyl side, 3 side chain; linkers in the order of their positions; H or OH if unused. Non-standard residues stand in square brackets, D forms with d. PyrimAla4Ph4CO2H = 4-[5-[(2S)-2-amino-2-carboxy-ethyl]pyrimidin-2-yl]benzoic acid, O=C([C@H](Cc1cnc(-c2ccc(C(=O)[*:3])cc2)nc1)N[*:1])[*:2]; Phe(4-(5-CO2H-2-pyrimidyl)) = N[C@@H](Cc1ccc(-c2ncc(C(=O)O)cn2)cc1)C(=O)O; Phe(4-(4-Ac-piperazinyl)) = CC(=O)N1CCN(c2ccc(C[C@H](N)C(=O)O)cc2)CC1; dPro(4R-(4-pyridylmethyl)) = O=C(O)[C@H]1C[C@@H](Cc2ccncc2)CN1; Trp(βS-Me,4-F) = C[C@@H](c1c[nH]c2cccc(F)c12)[C@H](N)C(=O)O; Bip(4'-COOH) = N[C@@H](Cc1ccc(-c2ccc(C(=O)O)cc2)cc1)C(=O)O; Ala(1-bicyclo(1.1.1)pentyl) = N[C@@H](CC12CC(C1)C2)C(=O)O; dPro(4R-Bzl(4-F)) = O=C(O)[C@H]1C[C@@H](Cc2ccc(F)cc2)CN1; Ala(pyrimidin-5-yl) = N[C@@H](Cc1cncnc1)C(=O)O; Phe(4-COOH) = N[C@@H](Cc1ccc(C(=O)O)cc1)C(=O)O; Pro(cis-4-F) = O=C(O)[C@@H]1C[C@H](F)CN1; 4Pal = N[C@@H](Cc1ccncc1)C(=O)O; Dab = NCC[C@H](N)C(=O)O; Dap = NC[C@H](N)C(=O)O; Aib = CC(C)(N)C(=O)O

target: Recombinant human IL-1β (BioLegend 579404) (human, UniProt P01584 117-269); assay: cell-based or functional assay

MRC5 IC50 | Binder
0.045 nM | cyclo([Phe(4-(5-CO2H-2-pyrimidyl))][Ala(1-bicyclo(1.1.1)pentyl)][Phe(4-COOH)]G[Pro(cis-4-F)][Trp(βS-Me,4-F)][Aib]SW[Aib][Ala(pyrimidin-5-yl)]Q[Dab]G[dPro(4R-Bzl(4-F))]) (SMILES C[C@@H](c1c[nH]c2cccc(F)c12)[C@@H]1NC(=O)[C@@H]2C[C@H](F)CN2C(=O)CNC(=O)[C@H](Cc2ccc(C(=O)O)cc2)NC(=O)[C@H](CC23CC(C2)C3)NC(=O)[C@H](Cc2ccc(-c3ncc(C(=O)O)cn3)cc2)NC(=O)[C@H]2C[C@@H](Cc3ccc(F)cc3)CN2C(=O)CNC(=O)[C@H](CCN)NC(=O)[C@H](CCC(N)=O)NC(=O)[C@H](Cc2cncnc2)NC(=O)C(C)(C)NC(=O)[C@H](Cc2c[nH]c3ccccc23)NC(=O)[C@H](CO)NC(=O)C(C)(C)NC1=O) [SEQ ID NO: 83]
0.028 nM | cyclo([Bip(4'-COOH)][4Pal][Phe(4-COOH)]G[Pro(cis-4-F)][Trp(βS-Me,4-F)][Aib]EW[Aib][Ala(pyrimidin-5-yl)]QKG[dPro(4R-Bzl(4-F))]) (SMILES C[C@@H](c1c[nH]c2cccc(F)c12)[C@@H]1NC(=O)[C@@H]2C[C@H](F)CN2C(=O)CNC(=O)[C@H](Cc2ccc(C(=O)O)cc2)NC(=O)[C@H](Cc2ccncc2)NC(=O)[C@H](Cc2ccc(-c3ccc(C(=O)O)cc3)cc2)NC(=O)[C@H]2C[C@@H](Cc3ccc(F)cc3)CN2C(=O)CNC(=O)[C@H](CCCCN)NC(=O)[C@H](CCC(N)=O)NC(=O)[C@H](Cc2cncnc2)NC(=O)C(C)(C)NC(=O)[C@H](Cc2c[nH]c3ccccc23)NC(=O)[C@H](CCC(=O)O)NC(=O)C(C)(C)NC1=O) [SEQ ID NO: 9]
0.074 nM | cyclo([Phe(4-(5-CO2H-2-pyrimidyl))][4Pal][Phe(4-COOH)]G[Pro(cis-4-F)][Trp(βS-Me,4-F)][Aib]AW[Aib][4Pal]Q[Dab]G[dPro(4R-(4-pyridylmethyl))]) (SMILES C[C@@H]1NC(=O)C(C)(C)NC(=O)[C@H]([C@@H](C)c2c[nH]c3cccc(F)c23)NC(=O)[C@@H]2C[C@H](F)CN2C(=O)CNC(=O)[C@H](Cc2ccc(C(=O)O)cc2)NC(=O)[C@H](Cc2ccncc2)NC(=O)[C@H](Cc2ccc(-c3ncc(C(=O)O)cn3)cc2)NC(=O)[C@H]2C[C@@H](Cc3ccncc3)CN2C(=O)CNC(=O)[C@H](CCN)NC(=O)[C@H](CCC(N)=O)NC(=O)[C@H](Cc2ccncc2)NC(=O)C(C)(C)NC(=O)[C@H](Cc2c[nH]c3ccccc23)NC1=O) [SEQ ID NO: 85]
0.087 nM | cyclo([Phe(4-(5-CO2H-2-pyrimidyl))][Ala(1-bicyclo(1.1.1)pentyl)][Phe(4-COOH)]G[Pro(cis-4-F)][Trp(βS-Me,4-F)][Aib]AW[Aib][Ala(pyrimidin-5-yl)]Q[Dab]G[dPro(4R-(4-pyridylmethyl))]) (SMILES C[C@@H]1NC(=O)C(C)(C)NC(=O)[C@H]([C@@H](C)c2c[nH]c3cccc(F)c23)NC(=O)[C@@H]2C[C@H](F)CN2C(=O)CNC(=O)[C@H](Cc2ccc(C(=O)O)cc2)NC(=O)[C@H](CC23CC(C2)C3)NC(=O)[C@H](Cc2ccc(-c3ncc(C(=O)O)cn3)cc2)NC(=O)[C@H]2C[C@@H](Cc3ccncc3)CN2C(=O)CNC(=O)[C@H](CCN)NC(=O)[C@H](CCC(N)=O)NC(=O)[C@H](Cc2cncnc2)NC(=O)C(C)(C)NC(=O)[C@H](Cc2c[nH]c3ccccc23)NC1=O) [SEQ ID NO: 87]
0.047 nM | cyclo([Phe(4-(5-CO2H-2-pyrimidyl))][Ala(1-bicyclo(1.1.1)pentyl)][Phe(4-COOH)]G[Pro(cis-4-F)][Trp(βS-Me,4-F)][Aib]SW[Aib][4Pal]Q[Dab]G[dPro(4R-Bzl(4-F))]) (SMILES C[C@@H](c1c[nH]c2cccc(F)c12)[C@@H]1NC(=O)[C@@H]2C[C@H](F)CN2C(=O)CNC(=O)[C@H](Cc2ccc(C(=O)O)cc2)NC(=O)[C@H](CC23CC(C2)C3)NC(=O)[C@H](Cc2ccc(-c3ncc(C(=O)O)cn3)cc2)NC(=O)[C@H]2C[C@@H](Cc3ccc(F)cc3)CN2C(=O)CNC(=O)[C@H](CCN)NC(=O)[C@H](CCC(N)=O)NC(=O)[C@H](Cc2ccncc2)NC(=O)C(C)(C)NC(=O)[C@H](Cc2c[nH]c3ccccc23)NC(=O)[C@H](CO)NC(=O)C(C)(C)NC1=O) [SEQ ID NO: 84]
0.059 nM | cyclo([Bip(4'-COOH)][Ala(1-bicyclo(1.1.1)pentyl)][Phe(4-COOH)]G[Pro(cis-4-F)][Trp(βS-Me,4-F)][Aib]EW[Aib][Dap]Q[Dab]G[dPro(4R-(4-pyridylmethyl))]) (SMILES C[C@@H](c1c[nH]c2cccc(F)c12)[C@@H]1NC(=O)[C@@H]2C[C@H](F)CN2C(=O)CNC(=O)[C@H](Cc2ccc(C(=O)O)cc2)NC(=O)[C@H](CC23CC(C2)C3)NC(=O)[C@H](Cc2ccc(-c3ccc(C(=O)O)cc3)cc2)NC(=O)[C@H]2C[C@@H](Cc3ccncc3)CN2C(=O)CNC(=O)[C@H](CCN)NC(=O)[C@H](CCC(N)=O)NC(=O)[C@H](CN)NC(=O)C(C)(C)NC(=O)[C@H](Cc2c[nH]c3ccccc23)NC(=O)[C@H](CCC(=O)O)NC(=O)C(C)(C)NC1=O) [SEQ ID NO: 93]
0.045 nM | cyclo([Phe(4-(5-CO2H-2-pyrimidyl))][Ala(1-bicyclo(1.1.1)pentyl)][Phe(4-COOH)]G[Pro(cis-4-F)][Trp(βS-Me,4-F)][Aib]SW[Aib][4Pal]Q[Dab]G[dPro(4R-(4-pyridylmethyl))]) (SMILES C[C@@H](c1c[nH]c2cccc(F)c12)[C@@H]1NC(=O)[C@@H]2C[C@H](F)CN2C(=O)CNC(=O)[C@H](Cc2ccc(C(=O)O)cc2)NC(=O)[C@H](CC23CC(C2)C3)NC(=O)[C@H](Cc2ccc(-c3ncc(C(=O)O)cn3)cc2)NC(=O)[C@H]2C[C@@H](Cc3ccncc3)CN2C(=O)CNC(=O)[C@H](CCN)NC(=O)[C@H](CCC(N)=O)NC(=O)[C@H](Cc2ccncc2)NC(=O)C(C)(C)NC(=O)[C@H](Cc2c[nH]c3ccccc23)NC(=O)[C@H](CO)NC(=O)C(C)(C)NC1=O) [SEQ ID NO: 89]
0.075 nM | cyclo([Phe(4-(5-CO2H-2-pyrimidyl))][Ala(1-bicyclo(1.1.1)pentyl)][Phe(4-COOH)]G[Pro(cis-4-F)][Trp(βS-Me,4-F)][Aib]EW[Aib][4Pal]Q[Dab]G[dPro(4R-(4-pyridylmethyl))]) [SEQ ID NO: 86]
0.096 nM | cyclo([Phe(4-(5-CO2H-2-pyrimidyl))][Ala(1-bicyclo(1.1.1)pentyl)][Phe(4-COOH)]G[Pro(cis-4-F)][Trp(βS-Me,4-F)][Aib]AW[Aib]SQ[Dab]G[dPro(4R-Bzl(4-F))]) (SMILES C[C@@H]1NC(=O)C(C)(C)NC(=O)[C@H]([C@@H](C)c2c[nH]c3cccc(F)c23)NC(=O)[C@@H]2C[C@H](F)CN2C(=O)CNC(=O)[C@H](Cc2ccc(C(=O)O)cc2)NC(=O)[C@H](CC23CC(C2)C3)NC(=O)[C@H](Cc2ccc(-c3ncc(C(=O)O)cn3)cc2)NC(=O)[C@H]2C[C@@H](Cc3ccc(F)cc3)CN2C(=O)CNC(=O)[C@H](CCN)NC(=O)[C@H](CCC(N)=O)NC(=O)[C@H](CO)NC(=O)C(C)(C)NC(=O)[C@H](Cc2c[nH]c3ccccc23)NC1=O) [SEQ ID NO: 94]
0.054 nM | cyclo([PyrimAla4Ph4CO2H][4Pal][Phe(4-COOH)]G[Pro(cis-4-F)][Trp(βS-Me,4-F)][Aib]EW[Aib][Ala(pyrimidin-5-yl)]Q[Dab]G[dPro(4R-Bzl(4-F))]) (SMILES C[C@@H](c1c[nH]c2cccc(F)c12)[C@@H]1NC(=O)[C@@H]2C[C@H](F)CN2C(=O)CNC(=O)[C@H](Cc2ccc(C(=O)O)cc2)NC(=O)[C@H](Cc2ccncc2)NC(=O)[C@H](Cc2cnc(-c3ccc(C(=O)O)cc3)nc2)NC(=O)[C@H]2C[C@@H](Cc3ccc(F)cc3)CN2C(=O)CNC(=O)[C@H](CCN)NC(=O)[C@H](CCC(N)=O)NC(=O)[C@H](Cc2cncnc2)NC(=O)C(C)(C)NC(=O)[C@H](Cc2c[nH]c3ccccc23)NC(=O)[C@H](CCC(=O)O)NC(=O)C(C)(C)NC1=O) [SEQ ID NO: 91]
0.083 nM | cyclo([Phe(4-(5-CO2H-2-pyrimidyl))][Ala(1-bicyclo(1.1.1)pentyl)][Phe(4-COOH)]G[Pro(cis-4-F)][Trp(βS-Me,4-F)][Aib]AW[Aib][4Pal]Q[Dab]G[dPro(4R-(4-pyridylmethyl))]) (SMILES C[C@@H]1NC(=O)C(C)(C)NC(=O)[C@H]([C@@H](C)c2c[nH]c3cccc(F)c23)NC(=O)[C@@H]2C[C@H](F)CN2C(=O)CNC(=O)[C@H](Cc2ccc(C(=O)O)cc2)NC(=O)[C@H](CC23CC(C2)C3)NC(=O)[C@H](Cc2ccc(-c3ncc(C(=O)O)cn3)cc2)NC(=O)[C@H]2C[C@@H](Cc3ccncc3)CN2C(=O)CNC(=O)[C@H](CCN)NC(=O)[C@H](CCC(N)=O)NC(=O)[C@H](Cc2ccncc2)NC(=O)C(C)(C)NC(=O)[C@H](Cc2c[nH]c3ccccc23)NC1=O) [SEQ ID NO: 88]
0.064 nM | cyclo([Phe(4-(4-Ac-piperazinyl))][Ala(1-bicyclo(1.1.1)pentyl)][Phe(4-COOH)]G[Pro(cis-4-F)][Trp(βS-Me,4-F)][Aib]EW[Aib][4Pal]Q[Dab]G[dPro(4R-Bzl(4-F))]) [SEQ ID NO: 90]
0.07 nM | cyclo([PyrimAla4Ph4CO2H][Ala(1-bicyclo(1.1.1)pentyl)][Phe(4-COOH)]G[Pro(cis-4-F)][Trp(βS-Me,4-F)][Aib]EW[Aib][Ala(pyrimidin-5-yl)]Q[Dab]G[dPro(4R-Bzl(4-F))]) (SMILES C[C@@H](c1c[nH]c2cccc(F)c12)[C@@H]1NC(=O)[C@@H]2C[C@H](F)CN2C(=O)CNC(=O)[C@H](Cc2ccc(C(=O)O)cc2)NC(=O)[C@H](CC23CC(C2)C3)NC(=O)[C@H](Cc2cnc(-c3ccc(C(=O)O)cc3)nc2)NC(=O)[C@H]2C[C@@H](Cc3ccc(F)cc3)CN2C(=O)CNC(=O)[C@H](CCN)NC(=O)[C@H](CCC(N)=O)NC(=O)[C@H](Cc2cncnc2)NC(=O)C(C)(C)NC(=O)[C@H](Cc2c[nH]c3ccccc23)NC(=O)[C@H](CCC(=O)O)NC(=O)C(C)(C)NC1=O) [SEQ ID NO: 92]
